# From patent US20210054054A1 (ROCKEFELLER UNIVERSITY, published 2021)
# Positions count from the first letter of the chain named. Numbers in names are those of the source.
# B1: ibalizumab LC S56H variant (antibody, human IgG1, kappa, V domains shown)
# VH: QVQLQQSGPEVVKPGASVKMSCKASGYTFTSYVIHWVRQKPGQGLDWIGYINPYNDGTDYDEKFKGKATLTSDTSTSTAYMELSSLRSEDTAVYYCAREKDNYATGAWFAYWGQGTLVTVSS
# VL: DIVMTQSPDSLAVSLGERVTMNCKSSQSLLYSTNQKNYLAWYQQKPGQSPKLLIYWASTREHGVPDRFSGSGSGTDFTLTISSVQAEDVAVYYCQQYYSYRTFGGGTKLEIKR
# B2: ibalizumab variant with a histidine mutation at residue S93 in the light chain (antibody, human IgG1, kappa, V domains shown)
# VH: B1 VH
# VL: B1 VL with H62S, S99H
# notes: also called S93H
# B3: ibalizumab light chain triple Y92H/S93H/Y94H variant (antibody, human IgG1, kappa, V domains shown)
# VH: B1 VH
# VL: B1 VL with H62S, Y98H, S99H, Y100H
# B4: ibalizumab variant with a histidine mutation at residue Y94 in the light chain (antibody, human IgG1, kappa, V domains shown)
# VH: B1 VH
# VL: B1 VL with H62S, Y100H
# notes: also called Y94H; LC Y94
# B5: ibalizumab light chain S93/Y94 double histidine mutant (antibody, human IgG1, kappa, V domains shown)
# VH: B1 VH
# VL: B1 VL with H62S, S99H, Y100H
# notes: also called combination of S93 and Y94; S93/Y94 double mutant
# B6: ibalizumab variant with a histidine mutation at residue Y92 in the light chain (antibody, human IgG1, kappa, V domains shown)
# VH: B1 VH
# VL: B1 VL with H62S, Y98H
# notes: also called Y92H
# Columns and labels:
# [1] = biological target: T1, human CD4 receptor (human, UniProt P01730 26-396); assay: competition ELISA on CD4, competitor HRP-labeled wild type ibalizumab, pH 7.4
# T1 construct: also called human CD4 protein
# [2] = biological target: T1, human CD4 receptor; assay: competition ELISA on CD4, competitor HRP-labeled wild type ibalizumab; fold reduced binding vs wt at pH 5.0 over that at pH 7.4
Binder,pH 5.0/pH 7.4 differential [2],fold reduced CD4 binding vs wt at pH 7.4 [1],further results
B1,0.8,,fold vs wt affinity at pH 7.4 [1]: 1.3 fold
B2,,< 3 fold,
B3,3.4,,
B4,,< 3 fold,
B5,3,,
B6,,< 3 fold,fold loss of affinity vs wt at pH 7.4 [1]: > 2.6 fold
